# Measurements published in US20250188153A1 (UNIVERSITY OF GEORGIA RESEARCH FOUNDATION, published 2025).
# B1: MPV487 (antibody, V domains shown)
# VH: EVQLLESGGGLVQPGRSLRLSCTASGFTFDDYAMHWVRQLPGKGLEWVSGISWNSDNIGYADSVKGRFTISRDNGKNSLYLQMNSLRAEDTAFYYCAKDVRIDYDLLIGHIDYWGPGTLVTVSS
# VL: TQSPVTLSLSPGERATLSCRASQSFGGYCAWYQQKPGQSPRLLIYDASNRATGVPARFSGSGSGTDFTLTISSLEPEDSAVYFCQQRGNWPIFGQGTRLEI
# B2: MPV477 (antibody, V domains shown)
# VH: EVQLVQSGAEVKKPGASVEVSCKTSGYTFTDYYLHWVRQAPGQGLEWMGWINPRSGGTKYGQKFQGRVTMTRDTSISTAYMDLRGLRSDDTAVYYCARAPLLTVYAVAHRSGENRFDPWGQGTVTVSS
# VL: QPPSLSGAPGQTVTISCTGSGSNIGAGYDVNWYQCLPGTAPKLLMFDNSNRPSGVPDRFSGSRSGASASLAITGLQAEDEADYYCQSYDSGLSGWVFGGGTKLTVL
# B3: MPV86 (antibody, V domains shown)
# VH: QVQLVQSGAEVKKPGSSVKVSCKASGDTFNDVALSWVRQAPGQGLEWLGGIIPFFGTANYAQRFQDRVTITADASTSTAYLELGGLRSEDTAVYYCARGWSCRNITCFMMGYYFYIMDVWGQGTLVTVSS
# VL: LSLSPGERATLSCRASQSVGNFLAWYQQKPGQTPRLLIQDASNRATGIPARFSGTGSGTDFTLTISSLEPEDFAVYYCQQRSNWPPTFGPGTKVDIK
# B4: MPV488 (antibody, V domains shown)
# VH: EVQLVQSGFEVKKPGASVKVSCKASGYNFNNYGISWVRQAPGQGLEWMGWISAYTGNTNEAQKFQGRVSMTTDTSTSTAYMEVRSLRSDDTAVYYCARDIGSSMFYSYFYGMDVWGQGTTVIVSS
# VL: SLSVSLGERATINCKSSESVLYNSNNENYLDWYQQKPGQPPKLLIYWASTRASGVPDRFSGSASGTDFTLTISSLQAEDVAVYYCQQYYSTPRTFGQGTKVEIK
# B5: MPV485 (antibody, V domains shown)
# V domain 1: EVQLQEPGPGLVKPSETLSLTCTVSGGSISSTNSFWGWVRQPPGKGLEWIGSIYYSGTTYYNSSLKSRVTISVDTSKNQFSLRLSSVTAADTAVYYCARQGLTSSWYDGSGLDVWG
# V domain 2: SYELTQPPSVSVSPGQTASITCSGDKLGNKYACWYQQRPGQSPVLVIYQDTKRPSGIPERFSGSNSGNTATLTISGTQAMDEADYYCQAWDSNTVVFGGGTKLTVL
# B6: MPV482 (antibody, V domains shown)
# VH: EVQLVQSGGGVVQPGRSLRLSCAASGFTFSSFAMHWVRQAPGKGLEWVALISDDGNNKYHADSVKGRFTISRDSSKNTLYLQMNSLRGEDTAVYYCARDGSVVGAAAHCDHWGQGTLVTVSS
# VL: SYELTQPPSVSVSPGQTARITCSGDALPNQCAYWYQQKPGLAPVLLIYKDKERPSGIPERFSGSISGTTVTLTISGVQAEDEADYYCQSSDSSSTVVFGGGTKLTVL
# B7: MPV454 (antibody, V domains shown)
# VH: EVQLVESGGGLVKPGGSLRLSCSTSGFVFSSYAMHWVRQAPGKGLEHVSAISSTGDNTHYADSVKGRFTISRDNSRGRLYLQMTSVRPEDAALYYCVKDLYSGRFYYFLDDWGQGTRIIVSS
# VL: DIQVTQSPSSLSASVGDRVTISCRASQNISNYLNWFQQRPGKAPKLLIYVASTLQSGAPSRFSGSGSGTDFTLTITDLQPEDFATYYCQQSYNTPPITFGQGTRLEIK
# B8: MPV467 (antibody, V domains shown)
# VH: EVQLVESGGGVVRPGTSLRVSCAAFDFNFRDYGMHWVRQAPGKGLEWVAGIWYDGSNKDYADSVKGRFTISRDNSQNTLYLQMNSLRVEDTAVYYCARDPRTHREGALSHFDSWGQGTLVTVSS
# VL: PNELTQDPAVSVALGQTVRITCQGDSLRNYFAGWYQQKPGQAPLLVLYGENIRPSGIPDRFSGSSSGNTVSLTITGAQAEDEADYYCNSRDNSGNHWVFGGGTRLTVL
# B9: MPV483 (antibody, V domains shown)
# VH: EVQLVQSGAELKKPGSSVKVSCKASGDTFSNYAISWVRQAPGQGLEWMGGIIPIYNTANYAQKFQGRVTLTADESTSTAYMELSSLRSEDTAVYYCARDVRNNWSVLRGARYYYYGMDVWGQGTTVTVSS
# VL: DIVMTQTPFSLSASVGDRVTVTCRASQDISNSLAWFQQKPGKAPKSLIYAASSLQSGVPTRFSGGGSGTDFTLTISSLQPEDFATFYCLQYDSFPPTFGGGTKVEI
# B10: MPV481 (antibody, V domains shown)
# VH: EVQLVQSGGGLVKPGGSLRLSCAASGLPFNNAWMNWVRQAPGKGLEWVGRIKSKIDGGTTEYAAPVKGRFTISRDDSENTLYLQMNSLRTEDTAVYYCTTEYYALLSGNYSDCWGQGTLVTVSS
# VL: DIVMTQSPFSLSLSPGERATLSCRASQSIKRAYLGWYQQKPGQAPRLLIYGASNRATGIPDRFSGSGSGTDFTLTISRLEPEDFAVYYCQQYGDSPGGSFGQGTKLEIR
# B11: MPV489 (antibody, V domains shown)
# VH: EVQLLESGGGLVQPGGSLRLSCAASKFTFNNYEMNWLRQAPGKGLEWVSSISSSGDTIHNADSVKGRFIISRDNAKNSLHLQMNGLRAEDTAVYYCARAGSGWAYDAFDIWGLGTMVTVSS
# VL: LSASVGDRVTITCRASQSISSFLNWYQQKPGKAPKLLMYAASSLPVGVPSRFSGSGSGPEYTLTISNLQPEDFATYYCQQGYSSPPTFGGGTRLEVK
# B12: MPV414 (antibody, V domains shown)
# VH: QVQLVQSGPEVKKPGSSVMVSCKTSGGNFNNFAISWVRQAPGQGLEWMGGIVPIFGTANYAQKSQDRVTITADPSSSTAYLQLSSLTSDDTAIYYCARDLGRSSNYYYYSVFESWGQGTLVTVSS
# VL: DIVMTQSPATLSLSPGERATLSCRASQSVGDKLAWYQQKPGQAPRLLIYGASTRATDIPARFSGSGSGTEFTLTVSSLQPEDFAVYYCQQYENWPPITFGQGTRLEIK
# B13: MPV486 (antibody, V domains shown)
# VH: EVQLVESGGHLVQSGGSLRLSCAASGFTFSNYILNWVRQAPGKGLEWISYITGGSSAIYYADSVKGRFTISRDDAKNSLYLQMNNLRAEDTAVYYCARSHGYDSSGYYYYFAMDVWGQGTTVTVSS
# VL: QSVLTQPPSASGTPGQRVTISCSGSNSNIESNTVNWYQQIPGTAPKLLIYSDNRRPSGVPDRFSGSKSGTSASLAISGLQSEDEADYYCAAWDDSLIGYVFGTGTKVTV
# B14: MPV491 (antibody, V domains shown)
# VH: QVQLQESGPGLVKSSQTLSLTCTVSGGSISSVTSHWTWIRQHPGKGLEWIGYIFSSGTTYYSPSLRSRLTMSVDTSKNQFSLQLSSVTAADTAMYYCARGIYCGDSCYKGTDYWGRGTLVTVSS
# VL: IRLMTQTPVTLPVTPGEPASISCRSSQSLLHSNGYNYLDWYLQKPGQSPQLLIYRGSTRASGVPDRFSGSGSGTEFTLKISRVEAEDVGVYYCMQGLQTPYTFGQGTKLESR
# B15: MPV456 (antibody, V domains shown)
# VH: QVQLQESGPGVVKPSGTLSLTCGVSGGSISSSYWWSWVRQPPGKGLEWIGEIYHSGSTNYNPSLKRRVTISVDKSKNQFSLKVTSVTAADTAVYYCARGPIQYYDILTEERVGYCDYWGQGTLVTVSS
# VL: TLSASVGDRVTITCRASQSISSWLAWFQQKPGKAPKLLIYKTSSLESGVPSRFSGSGSGTEFTLTISSLQPDDFATYYCQEYNSYSRTFGQGTKVEIK
# B16: MPV478 (antibody, V domains shown)
# VH: EVQLVQSGAEVKKPGASVKVSCNASGYTFTGYYIHWVRQAPGQGLEWMGWINPRSGGTNYAQKFQGRVTLTRDTSITTAYMDVTRLRPDDTAVYYCATTREGIVLMPRGRGDDALDTWGQGTTVIVSS
# VL: DIVMTQSPVSLTVSLGERATINCKSSQSVLSTSNNENYLAWYQQKPGQPPNLLIYWASTRESGVPDRFSGSGSGTDFTLTISSLQAEDVAVYYCQQYFATPITFGPGTKVDVK
# B17: MPV464 (antibody, V domains shown)
# VH: QVQLQESGPGLVKPSQTLSLTCTVSGGSVRGGGDYWSWIRRPPGKGLEWIGHIYNSGTTFYNPSLKSRVTISIDTSKNQFSLKLRSVTAADTAVYYCGRVGSRATGLPDWIDPWGQGTLVTVSS
# VL: SYELTQPPSVSVSPGQTATITCSGTNLGAKYSCWYQQKPGQSPVLVIFQDNKRASGIPARFSASTSGDTATLTISGTQVMDEADYFCQAWDSRTAVFGGGTTLTVL
# Target: T1, hMPV F protein of hMPV CAN/97-83 (genotype A) (human metapneumovirus, UniProt Q6WB98 19-539)
# T1 sequence (Q6WB98 19-539): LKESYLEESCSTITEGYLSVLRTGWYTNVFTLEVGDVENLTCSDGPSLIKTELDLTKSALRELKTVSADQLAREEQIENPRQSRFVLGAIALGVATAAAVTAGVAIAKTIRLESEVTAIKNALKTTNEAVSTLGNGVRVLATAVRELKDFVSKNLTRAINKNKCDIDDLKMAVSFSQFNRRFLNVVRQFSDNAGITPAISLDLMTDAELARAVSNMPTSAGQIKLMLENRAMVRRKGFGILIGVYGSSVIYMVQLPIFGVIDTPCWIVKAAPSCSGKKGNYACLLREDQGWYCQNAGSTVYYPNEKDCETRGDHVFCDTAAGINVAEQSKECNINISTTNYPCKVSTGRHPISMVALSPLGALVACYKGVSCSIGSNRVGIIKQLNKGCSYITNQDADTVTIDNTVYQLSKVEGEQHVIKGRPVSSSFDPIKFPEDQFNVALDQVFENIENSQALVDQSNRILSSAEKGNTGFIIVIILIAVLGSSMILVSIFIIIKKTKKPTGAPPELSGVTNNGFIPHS
# Assay: cell-based or functional assay
Binder,"neutralizing activity, plaque-reduction assay [ng/mL]",fold lower neutralization IC50 than against hMPV TN/93-32 [fold]
B1,< 20,–
B2,–,≥ 20
B3,–,≥ 20
B4,< 20,≥ 20
B5,–,≥ 20
B6,< 20,–
B7,< 20,–
B8,< 20,–

# Target: T2, hMPV F protein of hMPV TN/93-32 (genotype B) (human metapneumovirus)
# Assay: cell-based or functional assay
row,Binder,"neutralizing activity, plaque-reduction assay [ng/mL]"
1,B8,< 1

# Target: T1, hMPV F protein of hMPV CAN/97-83 …
# Assay: cell-based or functional assay
# Remark: another data set of the same source
row,Binder,"IC50, plaque-reduction neutralization of hMPV CAN/97-83 [µg/mL]"
1,B9,0.032
2,B10,0.096
3,B1,0.003
4,B11,3.6
5,B12,0.044
6,B2,0.054
7,B13,0.51
8,B14,5.7
9,B15,0.45
10,B3,0.057
11,B16,0.21
12,B4,0.018
13,B17,0.14
14,B5,0.091
15,B6,0.014
16,B7,0.002
17,B8,0.005

# Target: T2, hMPV F protein of hMPV TN/93-32 …
# Assay: cell-based or functional assay
# Remark: another data set of the same source
row,Binder,"IC50, plaque-reduction neutralization of hMPV TN/93-32 [µg/mL]"
1,B9,0.11
2,B10,0.26
3,B1,0.012
4,B11,2.3
5,B12,0.59
6,B2,2.9
7,B13,0.062
8,B14,1.9
9,B15,0.81
10,B3,1.8
11,B16,0.068
12,B4,2.4
13,B17,0.4
14,B5,2.6
15,B6,0.047
16,B7,0.025
17,B8,0.0006
